Source: US20140031283A1, “ANTICANCER FUSION PROTEIN” (ADAMED SP. Z O.O., priority 2011, published 2014)

Legend:
MCF10A = experiment: MTT cytotoxicity test, MCF10A (mammary epithelial cells); type: cell-based; settings: for MCF10A mean (IC50): Table 4, mean/SD part; for MCF10A IC50: continuous incubation over 72 h, test MTT
Excerpt: (§1) MTT assay is a colorimetric assay used to measure proliferation, viability and cytotoxicity of cells. It consists in decomposition of a yellow tetrazolium salt MTT (4,5-dimethyl-2-thiazolyl)-2,5-diphenyltetrazolium bromide) to the water-insoluble purple dye formazan by mitochondrial enzyme succinate-tetrazolium reductase 1. MTT reduction occurs only in living cells. Data analysis consists in determining IC50 concentration of the protein (in ng/ml), at which the 50% reduction in the number of cells occurs in the population treated compared to control cells. Results were analyzed using GraphPad Prism 5.0 software. The test was performed according to the literature descriptions (Cells, J E, (1998). Cell Biology, a Laboratory Handbook, second edition, Academic Press, San Diego; Yang, Y., Koh, L W, Tsai, J H., (2004); Involvement of viral and chemical factors with oral cancer in Taiwan, Jpn J Clin Oncol, 34 (4), 176-183). Cell culture medium was diluted to a defined density (10^4-10^5 cells per 100 μl). Then 100 μl of appropriately diluted cell suspension was applied to a 96-well plate in triplicates. Thus prepared cells were incubated for 24 h at 37° C. in 5% or 10% CO2, depending on the medium used, and then to the cells (in 100 μl of medium) further 100 μl of the medium containing various concentrations of tested proteins were added. In the case of combination hTRAIL114-281 and p21WAF effector protein, 100 μl of the medium containing mixture of hTRAIL114-281 and p21WAF effector protein in molar ratio 1:1 was added. After incubation of the cells with tested proteins over the period of next 72 hours, which is equivalent to 3-4 times of cell division, the medium with the test protein was added with […] of MTT working solution [5 mg/ml], and incubation was continued for 3 h at 37° C. in 5% CO2. Then the medium with MTT solution was removed, and formazan crystals were dissolved by adding 100 μl of DMSO. After stirring, the absorbance was measured at 570 nm (reference filter 690 nm).
(§2) The results of in vitro cytotoxicity tests are summarized as IC50 values (ng/ml), which corresponds to the protein concentration at which the cytotoxic effect of fusion proteins is observed at the level of 50% with respect to control cells treated only with solvent. Each experiment represents the average value of at least two independent experiments performed in triplicates. As a criterion of lack of activity of protein preparations the IC50 limit of 2000 ng/ml was adopted.

MES-SA = experiment: MTT cytotoxicity test, MES-SA (human uterine sarcoma); type: cell-based; settings: for MES-SA mean (IC50): Table 4, mean/SD part; for MES-SA IC50: continuous incubation over 72 h, test MTT
Excerpt: as §1, §2

SK-MES-1 = experiment: MTT cytotoxicity test, SK-MES-1 (human lung cancer); type: cell-based; settings: for SK-MES-1 mean (IC50): Table 4, mean/SD part; for SK-MES-1 IC50: continuous incubation over 72 h, test MTT
Excerpt: as §1, §2

HCT-116 = settings: for HCT116 mean (IC50): Table 4, mean/SD part; for HCT116 IC50: continuous incubation over 72 h, test MTT
MES-SA/Dx5 = experiment: MTT cytotoxicity test, MES-SA/Dx5 (multidrug-resistant human uterine sarcoma); type: cell-based; settings: for MES-SA/Dx5 mean (IC50): Table 4, mean/SD part; for MES-SA/Dx5 IC50: continuous incubation over 72 h, test MTT
Excerpt: as §1, §2
Cells selected for this test included tumor cell lines that are naturally resistant to TRAIL protein (the criterion of natural resistance to TRAIL: IC50 for TRAIL protein >2000), as well as tumor cell lines sensitive to TRAIL protein and resistant to doxorubicin line MES-SA/DX5 as a cancer line resistant to conventional anticancer medicaments.

A549 = experiment: MTT cytotoxicity test, A549 (human lung cancer); type: cell-based; settings: for A549 mean (IC50): Table 4, mean/SD part; for A549 IC50: continuous incubation over 72 h, test MTT
Excerpt: as §1, §2

[1] = test system: TRAIL sensitive cell lines; experiment: in vitro cytotoxicity tests, TRAIL sensitive cell lines; type: cell-based; settings: continuous incubation over 72 h, test MTT; versus rhTRAIL 95-281 (cell line not given)
Excerpt: as §1, with “nm). […]” for “nm).”

Molecule | MCF10A mean (IC50) (MCF10A) [mg/L] | MES-SA mean (IC50) (MES-SA) [mg/L] | SK-MES-1 mean (IC50) (SK-MES-1) [mg/L] | HCT116 mean (IC50) (HCT-116) [mg/L] | MES-SA/Dx5 mean (IC50) (MES-SA/Dx5) [mg/L] | A549 mean (IC50) (A549) [mg/L] | MCF10A IC50 (MCF10A) [mg/L] | MES-SA IC50 (MES-SA) [mg/L] | SK-MES-1 IC50 (SK-MES-1) [mg/L] | IC50 [1] [mg/L] | HCT116 IC50 (HCT-116) [mg/L] | MES-SA/Dx5 IC50 (MES-SA/Dx5) [mg/L] | A549 IC50 (A549) [mg/L]
Ex. 5: fusion protein: 34-amino acid fragment of human fetoprotein at N-terminus of TRAIL95-281, uPA and MMP cleavage sites (protein, synthesized, a fusion protein comprising: a fragment of TRAIL protein, a fragment of human fetoprotein and cleavage sites recognized by uPA and MMP., fusion protein: 34-amino acid fragment of human fetoprotein at N-terminus of TRAIL95-281, uPA and MMP cleavage sites) LSEDKLLACGEGAADIIIGHLCIRHEMTPVNPGRVVRPLGLAGTSEETISTVQEKQQNISPLVRERGPQRVAAHITGTRGRSNTLSSPNSKNEKALGRKINSWESSRSGHSFLSNLHLRNGELVIHEKGFYYIYSQTYFRFQEEIKENTKNDKQMVQYIYKYTSYPDPILLMKSARNSCWSKDAEYGLYSIYQGGIFELKENDRIFVSVTNEHLIDMDHEASFFGAFLVG | 8.949 | 0.095 | 0.07965 | 0.1798 | 0.01116 | 3 |  |  |  |  |  |  | 
Ex. 15: fusion protein: 15-amino acid fragment of PH domain of TCL1 protein with antennapedia sequence at C-terminus of TRAIL121-281, MMP and uPA sites (protein, synthesized, a fusion protein comprising: a fragment of TRAIL protein, a fragment of PH domain of TCL1 protein - acting as Akt coactivator, cleavage sites recognized by uPA and MMP, an antennapedia transporting domain and a glycine-cysteine linker.) RVAAHITGTRGRSNTLSSPNSKNEKALGRKINSWESSRSGHSFLSNLHLRNGELVIHEKGFYYIYSQTYFRFQEEIKENTKNDKQMVQYIYKYTSYPDPILLMKSARNSCWSKDAEYGLYSIYQGGIFELKENDRIFVSVTNEHLIDMDHEASFFGAFLVGGSPLGLAGRVVRDRQIKIWFQNRRMKWKKAVTDHPDRLWAWEKF | 1 | 0.123 | 0.0784 | 0.6035 | 0.3289 | 1 |  |  |  |  |  |  | 
Ex. 16: fusion protein: hexapeptide inhibitor of E2F with antennapedia sequence at N-terminus of TRAIL121-281, uPA and MMP sites (protein, synthesized, a fusion protein comprising: a fragment of TRAIL protein, a peptide inhibitor of E2F, cleavage sites recognized by urokinase uPA and metalloprotease MMP and an antennapedia transporting domain.) FWLRFTKPRRPYRVVRPLGLAGRVAAHITGTRGRSNTLSSPNSKNEKALGRKINSWESSRSGHSFLSNLHLRNGELVIHEKGFYYIYSQTYFRFQEEIKENTKNDKQMVQYIYKYTSYPDPILLMKSARNSCWSKDAEYGLYSIYQGGIFELKENDRIFVSVTNEHLIDMDHEASFFGAFLVG | 0.09228 | 0.00846 | 0.003045 | 0.01585 | 0.001421 | 0.04285 |  |  |  |  |  |  | 
Ex. 11: fusion protein: 18-amino acid peptide DD2 from DOC-2/DAB2 with 7 Arg transporting domain at C-terminus of TRAIL95-281, MMP and uPA sites (protein, synthesized, a fusion protein comprising: a fragment of TRAIL protein, a fragment of peptide DD2 derived from DOC-2/DAB2, cleavage sites recognized by uPA and MMP, an arginine transporting domain and a cysteine-alanine-glycine steric linker., fusion protein: 18-amino acid peptide DD2 from DOC-2/DAB2 with 7 Arg transporting domain at C-terminus of TRAIL95-281, MMP and uPA sites) TSEETISTVQEKQQNISPLVRERGPQRVAAHITGTRGRSNTLSSPNSKNEKALGRKINSWESSRSGHSFLSNLHLRNGELVIHEKGFYYIYSQTYFRFQEEIKENTKNDKQMVQYIYKYTSYPDPILLMKSARNSCWSKDAEYGLYSIYQGGIFELKENDRIFVSVTNEHLIDMDHEASFFGAFLVGCAACAAACGGGPLGLAGRVVRRRRRRRRGGGFQLRQPPLVPSRKGE |  |  |  |  |  |  | 0.1333 | 0.1044 | 0.03348 | 0.063 | 0.08429 | 0.00885 | 0.257
Ex. 4: fusion protein: 34-amino acid fragment of human fetoprotein at C-terminus of TRAIL121-281, MMP and uPA cleavage sites (protein, synthesized, a fusion protein comprising: a fragment of TRAIL protein, a fragment of human fetoprotein and cleavage sites recognized by uPA and MMP., fusion protein: 34-amino acid fragment of human fetoprotein at C-terminus of TRAIL121-281, MMP and uPA cleavage sites) RVAAHITGTRGRSNTLSSPNSKNEKALGRKINSWESSRSGHSFLSNLHLRNGELVIHEKGFYYIYSQTYFRFQEEIKENTKNDKQMVQYIYKYTSYPDPILLMKSARNSCWSKDAEYGLYSIYQGGIFELKENDRIFVSVTNEHLIDMDHEASFFGAFLVGPLGLAGRVVRLSEDKLLACGEGAADIIIGHLCIRHEMTPVNPG |  |  |  |  |  |  | >2 | 0.2053 | 0.01011 |  | 0.03225 | 0.01136 | >2
Ex. 7: fusion protein: 8-amino acid fragment of human fetoprotein at C-terminus of TRAIL95-281, cysteine-alanine linker, MMP and uPA cleavage sites (protein, synthesized, a fusion protein comprising: a fragment of TRAIL protein, a fragment of human fetoprotein, cleavage sites recognized by uPA and MMP and a flexible cysteine - alanine linker., fusion protein: 8-amino acid fragment of human fetoprotein at C-terminus of TRAIL95-281, cysteine-alanine linker, MMP and uPA cleavage sites) TSEETISTVQEKQQNISPLVRERGPQRVAAHITGTRGRSNTLSSPNSKNEKALGRKINSWESSRSGHSFLSNLHLRNGELVIHEKGFYYIYSQTYFRFQEEIKENTKNDKQMVQYIYKYTSYPDPILLMKSARNSCWSKDAEYGLYSIYQGGIFELKENDRIFVSVTNEHLIDMDHEASFFGAFLVGCAACAAACPLGLAGRVVREMTPVNPG |  |  |  |  |  |  | >2 | >2 | 0.0366 | 0.105 | 0.0635 | 0.02211 | >2
